From US20250019429A1 (Janssen / Centocor, published 2025)

Legend:
[1] = target: T1, recombinant human TNFα (human, UniProt P01375 77-233); experiment: inhibition of 125I-TNFα binding to plate-coated p55-sf2 by hybridoma supernatant
T1 construct: also called huTNFα; tumor necrosis factor alpha
Description: (§1) Assay for Inhibition of TNF Binding to Receptor. […] 50:1 of p55-sf2 at 0.5: g/ml in PBS was added to Optiplates to coat the wells during a one-hour incubation at 37° C. Serial dilutions of the eight TNV cell supernatants were prepared in 96-well round-bottom plates using PBS/0.1% BSA as diluent. […] The mixture was preincubated for one hour at RT. […] After 2 hrs at RT, Optiplates were washed three times with PBS-Tween. […] of Microscint-20 was added and the cpm bound determined using the TopCount gamma counter.

[2] = target: T1, recombinant human TNFα; experiment: competition: mAb in hybridoma supernatant preincubated with 125I-TNFα (5 ng/ml), then 125I-TNFα bound to plate-coated p55-sf2 counted as cpm
Description: Although eight TNV mAb samples were tested in these experiments, for simplicity three of the mAbs that were shown by DNA sequence analyses to be identical to one of the other TNV mAbs (see Section 5.2.2) are not shown here. Each sample was tested in duplicate. The results shown are representative of two independent experiments.
as §1

[3] = target: T1, recombinant human TNFα; experiment: cell-based or functional assay

B1: TNV148 (antibody, human IgG1, kappa, V domains shown)
VH: QVQLVESGGGVVQPGRSLRLSCAASGFIFSSYAMHWVRQAPGNGLEWVAFMSYDGSNKKYADSVKGRFTISRDNPKNTLYLQMNSLRAEDTAVYYCARDRGIAAGGNYYYYGMDVWGQGTTVTVSS
VL: EIVLTQSPATLSLSPGERATLSCRASQSVYSYLAWYQQKPGQAPRLLIYDASNRATGIPARFSGSGSGTDFTLTISSLEPEDFAVYYCQQRSNWPPFTFGPGTKVDIKR
notes: Hybridoma-derived fully human IgG1 kappa; also called GenTNV148.26.12; C420A
In the case of B1, the “fold better at blocking TNF binding, against TNV118 and TNV14” value [1] is reported as ~4 fold, the “IC50 (read off the curve)” value [2] is reported as ~4 ng/mL and the “neutralizing TNFα bioactivity” value [3] is reported as 4 fold (against TNV14).

B2: TNV86 (antibody, human IgG1, kappa, V domains shown)
VH: B1 VH
VL: B1 VL
notes: also called GenTNV86.14.34; C417A
B2 was tested, and the “fold better at blocking TNF binding, against TNV118 and TNV14” value [1] was ~4 fold.
